Consider 1 substance from patent US8642555.

In the data set the test system is albumin-bound form of EMC-Arg-Ser-Ser-Tyr-Tyr-Ser-Leu-PABC-DOXO (6).

As for prostate-specific antigen (PSA), the “PSA-mediated cleavage monitored by HPLC (enzyme activity)” value is “cleaved efficiently within a few hours”.
